The record followed here is paper PMC10397247.

Assay [1] deals with T1, 4H2750-AA.
T1 chain: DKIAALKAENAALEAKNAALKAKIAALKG
The assay can be described thus: two-hybrid library CCmax.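 Further: natural log of median RNA to DNA barcode read ratio; higher means stronger binding.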

Assay [2] deals with T2, 4H2898-AA.
T2 chain: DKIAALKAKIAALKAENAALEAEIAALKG
The assay can be described thus: two-hybrid library CCmax.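 Further: natural log of median RNA to DNA barcode read ratio; higher means stronger binding.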 Conditions: mean of both orientations.

Assay [3] concerns the target T3, 4H3020-AA.
T3 chain: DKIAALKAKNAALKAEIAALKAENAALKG
In words: two-hybrid library CCmax.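 Further: natural log of median RNA to DNA barcode read ratio; higher means stronger binding.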 Conditions: mean of both orientations.

Assay [4] has as its target T4, 4H3365-AA.
T4 chain: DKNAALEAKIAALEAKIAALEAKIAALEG
The assay can be described thus: two-hybrid library CCmax.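 Further: natural log of median RNA to DNA barcode read ratio; higher means stronger binding.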 Conditions: mean of both orientations.

Assay [5] has as its target T5, 4H355-AA.
T5 chain: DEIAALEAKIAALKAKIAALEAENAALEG
The assay can be described thus: two-hybrid library CCmax. The conditions noted are these: mean of both orientations.

Assay [6] addresses T6, 4H3651-AA.
T6 chain: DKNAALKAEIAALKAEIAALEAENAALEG
In words: two-hybrid library CCmax. Conditions: mean of both orientations.

Assay [7] has as its target T7, 4H3705-AA.
T7 chain: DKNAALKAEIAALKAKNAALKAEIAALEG
In words: two-hybrid library CCmax. Conditions: mean of both orientations.

The target of assay [8] is T8, 4H3782-AA.
T8 chain: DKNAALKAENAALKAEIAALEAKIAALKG
In words: two-hybrid library CCmax. Conditions: mean of both orientations.

Assay [9] deals with T9, 4H465-AA.
T9 chain: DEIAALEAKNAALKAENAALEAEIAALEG
The assay can be described thus: two-hybrid library CCmax. Conditions: mean of both orientations.

Assay [10] addresses T10, 4H486-AA.
T10 chain: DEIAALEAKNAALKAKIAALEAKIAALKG
The assay can be described thus: two-hybrid library CCmax. Conditions: mean of both orientations.

For assay [11], the target named is T11, 4H535-AA.
T11 chain: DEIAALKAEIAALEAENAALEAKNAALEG
In words: two-hybrid library CCmax. Conditions: mean of both orientations.

Assay [12] concerns the target T12, 4H58-AA.
T12 chain: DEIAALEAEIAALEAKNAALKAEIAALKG
The assay can be described thus: two-hybrid library CCmax. The conditions noted are these: mean of both orientations.

Assay [13] addresses T13, 4H895-AA.
T13 chain: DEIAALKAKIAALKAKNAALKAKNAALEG
The assay can be described thus: two-hybrid library CCmax. Conditions: mean of both orientations.

In assay [14] the target is T14, 4H_APH.
T14 chain: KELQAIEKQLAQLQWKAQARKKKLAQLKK
In words: two-hybrid library CCmax. Conditions: mean of both orientations.

Assay [15] has as its target T15, 4H_BCR.
T15 chain: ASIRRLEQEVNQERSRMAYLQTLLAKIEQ
The assay can be described thus: two-hybrid library CCmax. The conditions noted are these: mean of both orientations.

Assay [16] concerns the target 4H_GCN4. In words: two-hybrid library CCmax. Conditions: mean of both orientations.
The target in assay [17] is GCN2_T. In words: two-hybrid library CCmax.
For assay [18], the target named is T16, P1-AA-1HGe-A.
T16 chain: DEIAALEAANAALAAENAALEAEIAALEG
The assay can be described thus: two-hybrid library CCmax. Conditions: mean of both orientations.

In assay [19] the target is T17, P1-AA-1HGe-D.
T17 chain: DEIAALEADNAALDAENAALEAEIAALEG
In words: two-hybrid library CCmax. The conditions noted are these: mean of both orientations.

In assay [20] the target is T18, P1-AA-1HGe-H.
T18 chain: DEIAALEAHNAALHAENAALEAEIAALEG
In words: two-hybrid library CCmax.

Assay [21] addresses T19, P1-AA-1HGe-M.
T19 chain: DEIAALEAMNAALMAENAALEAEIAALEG
The assay can be described thus: two-hybrid library CCmax. The conditions noted are these: mean of both orientations.

In assay [22] the target is T20, P1-AA-1HGe-Q.
T20 chain: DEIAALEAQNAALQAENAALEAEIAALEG
The assay can be described thus: two-hybrid library CCmax. The conditions noted are these: mean of both orientations.

The target in assay [23] is T21, P1-AA-1HGe-R.
T21 chain: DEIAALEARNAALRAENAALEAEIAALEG
In words: two-hybrid library CCmax. The conditions noted are these: mean of both orientations.

Assay [24] has as its target T22, P1-AA-1HGe-S.
T22 chain: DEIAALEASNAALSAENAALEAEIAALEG
The assay can be described thus: two-hybrid library CCmax. Conditions: mean of both orientations.

Assay [25] deals with T23, P1-AA-1HGe-T.
T23 chain: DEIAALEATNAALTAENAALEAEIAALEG
In words: two-hybrid library CCmax. Conditions: mean of both orientations.

The target of assay [26] is T24, P1-AA-1HGe-W.
T24 chain: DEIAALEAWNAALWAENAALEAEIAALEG
The assay can be described thus: two-hybrid library CCmax. The conditions noted are these: mean of both orientations.

Assay [27] concerns the target T25, P1-AA-1HGe-Y.
T25 chain: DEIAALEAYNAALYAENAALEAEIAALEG
In words: two-hybrid library CCmax. Conditions: mean of both orientations.

The target in assay [28] is T26, P1-AA.
T26 chain: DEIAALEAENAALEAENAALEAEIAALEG
The assay can be described thus: two-hybrid library CCmax. The conditions noted are these: mean of both orientations.

Assay [29] addresses T27, Core_ININ-es_KEEK.
T27 chain: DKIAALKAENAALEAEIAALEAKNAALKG
The assay can be described thus: two-hybrid library CCmax. Conditions: mean of both orientations.

Assay [30] deals with T28, 4H1193-bH.
T28 chain: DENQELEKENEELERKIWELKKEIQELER
The assay can be described thus: two-hybrid library CCNG1.

Assay [31] addresses T29, 4H1328-bH.
T29 chain: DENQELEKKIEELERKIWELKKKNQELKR
In words: two-hybrid library CCNG1.

The target in assay [32] is T30, 4H1369-bH.
T30 chain: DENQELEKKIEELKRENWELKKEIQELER
In words: two-hybrid library CCNG1.

For assay [33], the target named is T31, 4H1387-bH.
T31 chain: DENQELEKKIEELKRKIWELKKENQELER
In words: two-hybrid library CCNG1.

The target in assay [34] is T32, 4H1406-bH.
T32 chain: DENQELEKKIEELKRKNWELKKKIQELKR
The assay can be described thus: two-hybrid library CCNG1.

Assay [35] addresses T33, 4H1446-bH.
T33 chain: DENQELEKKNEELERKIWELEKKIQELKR
In words: two-hybrid library CCNG1.

Assay [36] addresses T34, 4H1845-bH.
T34 chain: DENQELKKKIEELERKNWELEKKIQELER
The assay can be described thus: two-hybrid library CCNG1.

The target in assay [37] is T35, 4H2576-bH.
T35 chain: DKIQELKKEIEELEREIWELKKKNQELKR
The assay can be described thus: two-hybrid library CCNG1.

Assay [38] addresses T36, 4H2610-bH.
T36 chain: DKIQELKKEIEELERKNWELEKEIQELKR
The assay can be described thus: two-hybrid library CCNG1.

Assay [39] concerns the target T37, 4H2667-bH.
T37 chain: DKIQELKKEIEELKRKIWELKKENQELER
The assay can be described thus: two-hybrid library CCNG1.

Assay [40] deals with T38, 4H2697-bH.
T38 chain: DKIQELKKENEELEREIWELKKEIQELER
In words: two-hybrid library CCNG1.

Assay [41] addresses T39, 4H3189-bH.
T39 chain: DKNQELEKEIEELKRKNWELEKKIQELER
In words: two-hybrid library CCNG1.

The target of assay [42] is T40, 4H331-bH.
T40 chain: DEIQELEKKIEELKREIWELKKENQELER
In words: two-hybrid library CCNG1.

Assay [43] concerns the target T41, 4H3592-bH.
T41 chain: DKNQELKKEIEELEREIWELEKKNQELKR
In words: two-hybrid library CCNG1.

Assay [44] has as its target T42, 4H3601-bH.
T42 chain: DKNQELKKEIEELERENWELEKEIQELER
The assay can be described thus: two-hybrid library CCNG1.

Assay [45] addresses T43, 4H3606-bH.
T43 chain: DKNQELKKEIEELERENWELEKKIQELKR
In words: two-hybrid library CCNG1.

The target in assay [46] is T44, 4H370-bH.
T44 chain: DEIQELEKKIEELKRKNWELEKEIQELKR
The assay can be described thus: two-hybrid library CCNG1.

The target of assay [47] is T45, 4H3782-bH.
T45 chain: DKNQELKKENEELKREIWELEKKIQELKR
The assay can be described thus: two-hybrid library CCNG1.

The target in assay [48] is T46, 4H3843-bH.
T46 chain: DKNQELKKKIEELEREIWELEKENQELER
The assay can be described thus: two-hybrid library CCNG1.

Assay [49] concerns the target T47, 4H3907-bH.
T47 chain: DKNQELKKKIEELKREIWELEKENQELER
The assay can be described thus: two-hybrid library CCNG1.

Assay [50] addresses T48, 4H4001-bH.
T48 chain: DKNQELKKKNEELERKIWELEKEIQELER
In words: two-hybrid library CCNG1.

Assay [51] addresses T49, 4H4038-bH.
T49 chain: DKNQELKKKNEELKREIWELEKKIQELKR
In words: two-hybrid library CCNG1.

In assay [52] the target is T50, 4H462-bH.
T50 chain: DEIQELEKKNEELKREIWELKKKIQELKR
The assay can be described thus: two-hybrid library CCNG1.

Assay [53] concerns the target T51, 4H568-bH.
T51 chain: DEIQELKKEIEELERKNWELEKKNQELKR
The assay can be described thus: two-hybrid library CCNG1.

The target of assay [54] is T52, 4H607-bH.
T52 chain: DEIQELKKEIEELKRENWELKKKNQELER
The assay can be described thus: two-hybrid library CCNG1.

Assay [55] addresses T53, 4H687-bH.
T53 chain: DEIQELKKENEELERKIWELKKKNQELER
In words: two-hybrid library CCNG1.

Assay [56] concerns the target T54, 4H72-bH.
T54 chain: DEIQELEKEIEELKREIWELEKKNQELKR
In words: two-hybrid library CCNG1.

The target in assay [57] is T55, 4H797-bH.
T55 chain: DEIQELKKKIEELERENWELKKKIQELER
The assay can be described thus: two-hybrid library CCNG1.

The target of assay [58] is T56, 4H883-bH.
T56 chain: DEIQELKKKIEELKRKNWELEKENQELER
The assay can be described thus: two-hybrid library CCNG1.

Assay [59] concerns the target T57, 4H918-bH.
T57 chain: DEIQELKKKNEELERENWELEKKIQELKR
In words: two-hybrid library CCNG1.

Assay [60] concerns the target T58, 4H953-bH.
T58 chain: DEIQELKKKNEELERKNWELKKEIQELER
In words: two-hybrid library CCNG1.

Assay [61] concerns the target T59, 4H967-bH.
T59 chain: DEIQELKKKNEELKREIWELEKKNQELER
In words: two-hybrid library CCNG1.

For assay [62], the target named is T60, P8A-bS.
T60 chain: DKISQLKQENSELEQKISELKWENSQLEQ
The assay can be described thus: two-hybrid library CCNG1.

Chain of 4H_GCN4 (chain, as listed by the source): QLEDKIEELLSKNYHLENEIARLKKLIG

With DKIAALKAENAALEAKNAALKAKIAALKG [4H2750-AA], the interaction score in assay [1] is -1.55; in assay [2] it was 1.97; in assay [3], -1.5; in assay [4], -1.78; in [5] it was -0.643; in assay [6], -1.22. The interaction score is -0.91 in assay [7]; -0.13 in [8]; 2.28 in [9]; 1.13 in [10]; -1.08 in assay [11]; -0.465 in [12]. The interaction score in [13] was -1.79; in assay [14], -2.38; in [15], -1.7; in [16], -1.33; in assay [17], -1.81; in assay [18], 2.11. Moreover, the interaction score in assay [19] came out at 2.05; in assay [20] it was 1.92; in [21], 2.44; in assay [22], 2.33; in assay [23], 2.26; in [24], 1.86. In addition, the interaction score in assay [25] worked out at 2.06; in assay [26], 2.15; in [27], 2.03; in [28], 1.56.

Molecule DEIAALEAKNAALKAKIAALKAENAALEG [Core_ININ-es_EKKE] displayed an interaction score in assay [29] of 2.15.

As for DENQELEKENEELERKIWELKKEIQELER [4H1193-bH], the interaction score in [30] was -0.399; in assay [31], 0.732; in [32], -0.969; in [33], -0.684; in assay [34], -0.835; in [35], 0.131. The interaction score in assay [36] is -0.0802; in assay [37], 1.19; in [38], -0.0229; in assay [39], -0.964; in assay [40] it was -0.317; in assay [41], -0.917. Further, the interaction score in [42] was -0.0475; in assay [43], 0.341; in assay [44], 0; in [45], -0.559; in assay [46], -0.564; in [47], 1.32. Besides, the interaction score in assay [48] is 0.181; in assay [49] it was 0.0514; in assay [50] it was 0.425; in assay [51] it was 1.52; in assay [52], -1.11; in [53], -0.254. In addition, the interaction score is -1.7 in assay [54]; -0.482 in [55]; -0.782 in [56]; -0.528 in assay [57]; -0.574 in assay [58]; -1.33 in assay [59]. In addition, the interaction score is -1.33 in [60], -0.174 in [61] and 0.622 in assay [62].
